Reference: EP4763867A1 (Shanghai Mabgen Biotech Ltd., dated 2026)
Like-named read-outs stand apart in the source and are kept apart here.

How the values were obtained:
[1] = biological target: T1, human PD-1 (SEQ ID NO: 1) expressed on cells (human, UniProt Q15116 25-288); experiment: cell-based or functional assay
[2] = biological target: T2, Biotinylated human PD-1 (AcroBiosystems, PD1-H82E4) (human, UniProt Q15116 25-167, biotinylated (site not stated)); experiment: screening of a VHH yeast display library with biotinylated antigens
T2 construct: Screening antigen of the yeast display library; also called human PD-1 antigen (screening antigen)
T2 sequence (Q15116 25-167 limits assumed): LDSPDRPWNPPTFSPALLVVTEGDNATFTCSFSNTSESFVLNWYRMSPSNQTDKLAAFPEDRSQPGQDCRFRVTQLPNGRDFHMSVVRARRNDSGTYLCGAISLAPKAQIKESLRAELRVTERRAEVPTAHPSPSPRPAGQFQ

[3] = biological target: T1, human PD-1 (SEQ ID NO: 1) expressed on …; experiment: cell-based or functional assay; remark: listed apart in the source
[4] = biological target: T3, IL-2Rβ and IL-2Rγ on M07e cells (moderate-avidity IL-2 receptor IL-2Rβγ) (human, UniProt P14784 27-551; P31785 23-369); experiment: cell-based or functional assay
T3 sequence (looked up) 1: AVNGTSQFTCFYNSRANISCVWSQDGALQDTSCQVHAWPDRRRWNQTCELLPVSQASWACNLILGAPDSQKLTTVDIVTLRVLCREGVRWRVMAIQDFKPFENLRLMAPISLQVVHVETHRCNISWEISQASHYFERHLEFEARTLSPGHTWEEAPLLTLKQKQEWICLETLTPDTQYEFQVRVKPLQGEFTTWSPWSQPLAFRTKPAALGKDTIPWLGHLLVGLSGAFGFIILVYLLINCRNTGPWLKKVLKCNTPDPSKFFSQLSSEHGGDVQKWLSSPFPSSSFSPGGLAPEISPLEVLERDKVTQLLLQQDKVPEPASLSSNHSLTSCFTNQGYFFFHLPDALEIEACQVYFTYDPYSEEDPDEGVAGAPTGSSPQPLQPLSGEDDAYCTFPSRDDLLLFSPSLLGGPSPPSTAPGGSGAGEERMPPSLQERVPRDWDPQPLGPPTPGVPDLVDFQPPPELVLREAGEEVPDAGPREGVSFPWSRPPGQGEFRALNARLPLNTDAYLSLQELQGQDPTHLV
T3 sequence (looked up) 2: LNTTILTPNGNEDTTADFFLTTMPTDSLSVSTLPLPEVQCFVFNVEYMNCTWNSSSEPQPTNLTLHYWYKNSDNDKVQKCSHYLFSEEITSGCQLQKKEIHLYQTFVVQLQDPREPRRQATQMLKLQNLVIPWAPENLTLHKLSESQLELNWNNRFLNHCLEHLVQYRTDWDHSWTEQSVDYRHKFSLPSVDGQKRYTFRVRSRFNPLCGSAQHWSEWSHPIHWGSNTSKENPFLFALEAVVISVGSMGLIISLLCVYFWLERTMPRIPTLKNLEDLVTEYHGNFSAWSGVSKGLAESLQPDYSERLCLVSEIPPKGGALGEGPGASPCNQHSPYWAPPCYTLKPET

T1 sequence (Q15116 25-288 limits assumed): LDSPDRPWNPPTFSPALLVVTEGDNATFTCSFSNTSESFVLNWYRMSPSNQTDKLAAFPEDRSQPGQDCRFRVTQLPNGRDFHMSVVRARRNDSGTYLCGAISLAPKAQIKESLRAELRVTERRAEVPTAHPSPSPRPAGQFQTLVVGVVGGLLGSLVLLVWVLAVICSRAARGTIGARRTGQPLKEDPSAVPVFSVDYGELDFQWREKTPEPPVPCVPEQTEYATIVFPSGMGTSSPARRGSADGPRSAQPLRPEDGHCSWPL

B1: A17_hIgG4 (antibody, V domains shown)
VH: EVQVVESGGGLVQPGGSLRLSCVASGLTFSDYSMSWYRQAPGKERELVAIISGSGVIAHYVDSVKGRFTISRDNAKSTVYLQMVSLKPEDRGVYYCRAVSDWDDYWGQGTQVTVSS
[1]
  activity IC50, PD-1/PD-L1 NFAT reporter gene system: 1.2 nM

B2: A17 (VHH)
VHH: EVQVVESGGGLVQPGGSLRLSCVASGLTFSDYSMSWYRQAPGKERELVAIISGSGVIAHYVDSVKGRFTISRDNAKSTVYLQMVSLKPEDRGVYYCRAVSDWDDYWGQGTQVTVSS
notes: also called Variable region of A17
[2]
  binding result: binds

B3: A17m0902_hIgG4 (antibody, V domains shown)
VH: EVQLVESGGGLVQPGGSLRLSCAASGLTFSDYSMSWYRQAPGKGRELVAIISGSGVITHYVDSVKGRFTISRDNAKNTLYLQMRSLRAEDTAVYYCRAVSDWEDYWGQGTQVTVSS
[3]
  activity IC50, PD-1/PD-L1 NFAT reporter gene system: 0.435 nM

B4: PEGylated IL-2 mutant (PEG-IL-2v) (ligand)
chain: APASSSTKKTQLQLEHLLLDLQMILQGISNYKNPKLTRMLTAKFYMPKKATELKHLQCLEEELKPLEEVLQGAQSKNFHLRPRDLISNINVIVLELKGSETTFMCEYADETATIVEFLNRWITFAQSIISTLT
modifications: PEGylated (site and PEG not stated)
[4]
  M07e proliferation, EC50: 20.9 nM
  M07e-hPD1 proliferation, EC50: 13.3 nM
